This note sets out measurements from PMC12817190.

In one experiment the target is human fibrin (human) (UniProt P02671).
The next experiment concerns the target porcine fibrin (porcine) (UniProt P14460).

Chain of UniProt P02671 (P02671 36-866, chain 1 of 3): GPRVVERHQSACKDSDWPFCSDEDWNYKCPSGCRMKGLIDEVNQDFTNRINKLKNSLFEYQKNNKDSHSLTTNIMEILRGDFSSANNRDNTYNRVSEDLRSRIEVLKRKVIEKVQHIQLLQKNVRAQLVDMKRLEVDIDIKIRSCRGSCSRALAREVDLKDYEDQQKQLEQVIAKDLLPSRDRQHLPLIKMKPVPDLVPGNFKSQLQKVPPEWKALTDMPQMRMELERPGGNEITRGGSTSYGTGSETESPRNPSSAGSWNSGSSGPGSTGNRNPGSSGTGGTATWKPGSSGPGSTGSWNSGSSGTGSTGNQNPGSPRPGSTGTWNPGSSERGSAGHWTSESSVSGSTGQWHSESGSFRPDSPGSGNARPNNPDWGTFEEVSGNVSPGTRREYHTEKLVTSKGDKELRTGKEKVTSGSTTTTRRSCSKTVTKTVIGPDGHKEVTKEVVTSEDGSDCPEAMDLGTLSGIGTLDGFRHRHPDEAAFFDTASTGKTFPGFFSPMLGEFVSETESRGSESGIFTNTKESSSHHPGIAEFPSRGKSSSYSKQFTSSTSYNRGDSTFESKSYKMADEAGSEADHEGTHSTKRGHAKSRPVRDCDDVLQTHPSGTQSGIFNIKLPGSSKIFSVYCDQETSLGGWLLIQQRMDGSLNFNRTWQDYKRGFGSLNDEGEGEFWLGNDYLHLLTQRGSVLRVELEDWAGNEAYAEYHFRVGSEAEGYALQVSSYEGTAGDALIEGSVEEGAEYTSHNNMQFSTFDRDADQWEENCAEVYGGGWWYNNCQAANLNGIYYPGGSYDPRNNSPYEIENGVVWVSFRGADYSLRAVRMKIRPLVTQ
Chain of UniProt P02671 (P02675 45-491, chain 2 of 3, further chain): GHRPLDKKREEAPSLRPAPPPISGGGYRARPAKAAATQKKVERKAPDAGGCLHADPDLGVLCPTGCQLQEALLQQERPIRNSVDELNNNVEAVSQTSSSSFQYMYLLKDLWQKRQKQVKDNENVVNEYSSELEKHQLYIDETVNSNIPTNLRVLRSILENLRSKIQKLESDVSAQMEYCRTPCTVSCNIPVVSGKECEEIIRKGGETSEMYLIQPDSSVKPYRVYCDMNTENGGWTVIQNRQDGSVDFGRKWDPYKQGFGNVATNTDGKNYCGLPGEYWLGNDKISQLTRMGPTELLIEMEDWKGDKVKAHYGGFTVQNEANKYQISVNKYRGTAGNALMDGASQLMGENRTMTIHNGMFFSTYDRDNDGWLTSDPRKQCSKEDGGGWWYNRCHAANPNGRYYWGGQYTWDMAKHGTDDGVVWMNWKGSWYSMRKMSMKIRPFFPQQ
Chain of UniProt P02671 (P02679 other isoform, or with tags, fused parts or gaps, chain 3 of 3, further chain): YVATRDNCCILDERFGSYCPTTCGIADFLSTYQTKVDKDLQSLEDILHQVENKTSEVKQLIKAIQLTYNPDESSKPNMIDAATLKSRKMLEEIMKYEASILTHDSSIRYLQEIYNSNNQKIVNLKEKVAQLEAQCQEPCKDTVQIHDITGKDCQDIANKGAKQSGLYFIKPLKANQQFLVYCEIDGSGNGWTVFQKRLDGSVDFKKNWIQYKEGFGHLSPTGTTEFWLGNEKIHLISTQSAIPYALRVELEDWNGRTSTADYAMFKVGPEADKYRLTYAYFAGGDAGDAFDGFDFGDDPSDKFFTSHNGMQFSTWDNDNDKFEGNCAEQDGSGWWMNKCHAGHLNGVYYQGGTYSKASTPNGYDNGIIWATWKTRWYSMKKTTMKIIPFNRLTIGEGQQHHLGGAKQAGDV

On to “porcine plasmin (from UniProt P06867 20-809; P06867 20-809) (enzyme)”, for which the K m of overall fibrin breakdown by plasmin (clot lysis time by turbidity against fibrinogen 0 to 5 µM, batroxobin clots, 5 nM active plasmin) in the experiment with human fibrin (human) was 3.1 µM; with porcine fibrin (porcine) it was 4.9 µM.

On to “human plasmin (from UniProt P00747 20-580) (enzyme)”, for which the K m of overall fibrin breakdown by plasmin (clot lysis time by turbidity against fibrinogen 0 to 5 µM, batroxobin clots, 5 nM active plasmin) was determined as 1.1 µM with human fibrin (human) and 1.3 µM with porcine fibrin (porcine).
